Results: publication PMC10499537 (Biomedicine & pharmacotherapy = Biomedecine & …, 2023)

T1: ADAM10 D+C domains construct (species not named for the experiment) (Bos taurus, assumed)
T1 chain: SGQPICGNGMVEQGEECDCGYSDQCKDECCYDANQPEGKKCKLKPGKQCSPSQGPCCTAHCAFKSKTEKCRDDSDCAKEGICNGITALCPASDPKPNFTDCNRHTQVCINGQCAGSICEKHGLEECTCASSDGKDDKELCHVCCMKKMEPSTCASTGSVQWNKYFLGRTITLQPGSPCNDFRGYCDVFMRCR


Experiments:
[1] = target: T1, ADAM10 D+C domains construct (species …); experiment: ELISA
[2] = target: human ADAM19 D+C construct (438-646) (Homo sapiens, UniProt Q9H013); experiment: ELISA
Sequence of human ADAM19 D+C construct (438-646) (Q9H013 438-646): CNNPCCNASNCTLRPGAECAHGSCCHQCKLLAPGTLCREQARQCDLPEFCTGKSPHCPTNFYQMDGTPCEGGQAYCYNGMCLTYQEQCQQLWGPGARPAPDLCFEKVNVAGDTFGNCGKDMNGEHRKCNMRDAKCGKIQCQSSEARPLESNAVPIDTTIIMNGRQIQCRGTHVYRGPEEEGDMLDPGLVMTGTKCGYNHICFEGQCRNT

[3] = target: human ADAM17 D+C (482-648) (Homo sapiens, UniProt P78536); experiment: ELISA
Sequence of human ADAM17 D+C (482-648) (P78536 482-648): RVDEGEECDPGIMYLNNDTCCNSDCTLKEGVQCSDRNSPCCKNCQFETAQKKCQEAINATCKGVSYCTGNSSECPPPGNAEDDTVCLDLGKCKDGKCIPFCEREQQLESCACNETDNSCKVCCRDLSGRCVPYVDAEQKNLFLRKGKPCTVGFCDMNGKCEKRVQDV

[4] = target: full recombinant ADAM10 ECD (species not named for the experiment) (Bos taurus, assumed, UniProt Q10741); experiment: BLI
Sequence of full recombinant ADAM10 ECD (species not named for the experiment) (Q10741 20-672): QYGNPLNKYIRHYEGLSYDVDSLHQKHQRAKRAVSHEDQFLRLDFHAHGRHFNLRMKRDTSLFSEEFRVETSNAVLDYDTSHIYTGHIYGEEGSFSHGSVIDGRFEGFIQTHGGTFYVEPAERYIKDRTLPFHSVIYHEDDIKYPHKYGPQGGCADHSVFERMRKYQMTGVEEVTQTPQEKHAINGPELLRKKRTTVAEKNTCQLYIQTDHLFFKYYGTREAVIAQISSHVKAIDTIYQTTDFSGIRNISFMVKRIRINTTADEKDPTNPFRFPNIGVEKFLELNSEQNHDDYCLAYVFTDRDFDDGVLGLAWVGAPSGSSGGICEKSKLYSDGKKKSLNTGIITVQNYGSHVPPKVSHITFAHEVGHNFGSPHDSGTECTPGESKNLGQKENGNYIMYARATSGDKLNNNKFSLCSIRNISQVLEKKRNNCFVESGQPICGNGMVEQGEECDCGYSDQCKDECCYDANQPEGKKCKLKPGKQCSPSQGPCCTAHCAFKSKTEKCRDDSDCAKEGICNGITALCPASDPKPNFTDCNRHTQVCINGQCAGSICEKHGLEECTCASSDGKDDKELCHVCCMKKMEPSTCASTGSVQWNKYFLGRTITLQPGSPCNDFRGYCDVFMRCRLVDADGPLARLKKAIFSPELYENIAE

| binding result [1] | binding result [2] | binding result [3] | Kd [4] | Binder |
| --- | --- | --- | --- | --- |
| binds |  |  |  | murine anti-ADAM10 monoclonal antibody 8C7 (IgG) (antibody, V domains shown) VH: QVQLEESGAELARPGSSVKLSCKASGYTFTNYWLQWVKQRTGQGLEWIGAIYPRDGDAKYSQKFKDKASLTVNESSSTAYMHLSALASEDSAVYYCARANYGLYYAMDRWGQGTSVTVSS VL: DIFLTQSPANMSVSPGERVSFSCRASQNIGTNIHWYQQRTNGSPRLLIKYASESISGIPSRFSGSGSGTDFILSINTVESEDIAVYFCQQSNRWPFTFGSGTKLEVI |
|  | no binding | no binding | ~200 nM | fully human anti-ADAM10 monoclonal antibody 1H5 (IgG) (antibody, V domains shown) VH: QVQLVESGGGLVKPGGSLRLSCAASGFTFSDYYMSWIRQAPGKGLEWVSYISSSGSTIYYADSVKGRFTISRDNAKNSLYLQMNSLRAEDTAVYYCARDFYDSKIFDYWGQGTLVTVSS VL: DIQMTQSPSSLSASVGDRVTITCRASQSISSYLNWYQQKPGKAPKLLIYAASSLQSGVPSRFSGSGSGTDFTLTISSLQPEDVGVYYCMEGLKTPFTFGPGTKLEIK |
